# B1: mLeg1 protein: mouse secretory protein (SEQ ID NO: 2) encoded by mLeg1 gene, partially purified from salivary glands by column chromatography (protein, listed as Mus musculus)
# chain: MAVLASWVWVLAGCFCAAVAEVSDSSDPYPPLWEDSPEQLSDYMMEDGNYIINPWVYTDRMGMYRILLEETAMYFAKYGPENEQNLLWGLPLQFGWQYQSGRLADPTGMTDCGNELNESLCVSVDSWWADINYYLSVIPFLAAVDSGITGISPNQITILPPPKDQMRFCYNVSDCQSAVPGTMNRWRDFFQYMQLNSSDFDGLLNYLWEAHASSLDYPTSAFGDRYNFYSEKEANFEENWAIAVNYLAAARLPTTQNRTYSFQRGLPPRVLVDTDIAPFIPDFTPLQNEVLVSLKLLGDTDRNSGSLSLTLWENLMSTKLARTLFLKAFEEFLATSS
# modifications: partially purified
# Tests used:
# Type in all cases: cell-based, human
# [1] = test system: Akt phosphorylation of the HepG2 cells; assay: Akt phosphorylation of HepG2 cells incubated with salivary gland cell culture supernatant (Western blot); conditions: wild type supernatant containing mLeg1
# Method: 14.1 Culture of human liver cancer cells HepG2: 10% newborn calf serum (GIBCO Cat. No. 16010-159) in DMEM high-glucose culture medium was used to culture the cell line. Cells were kept in a 37° C. incubator with 5% CO2, and saturated humidity. At the time of passage, the culture solution was thoroughly removed, and the left cells was digested with 0.25% typsin (EDTA-free, Sigma Cat. No. T4549), and an appropriate amount of cells were subjected to subculture or subsequent experiments.
# 14.2 The adherent HepG2 cells were incubated using the culture supernatant of the primary culture of the wild-type mouse salivary gland cells and the culture supernatant of the mLeg1^Δ/Δ mice, and the cell samples were collected 20 minutes later and 10 hours later.
# 14.3 The content of p-Akt was detected using an Akt phosphorylation antibody by Western blot, so as to reflect Akt phosphorylation level.
# [2] = test system: Akt phosphorylation of the HepG2 cells; assay: Akt phosphorylation of HepG2 cells incubated with mLeg1 protein partially purified from salivary glands (Western blot)
# Method: 16.1.1 The salivary glands of two to three wild-type mice were harvested and rinsed in the pre-cooled PBS buffer, minced into fine pieces with scissors, and then transferred to a tissue homogenizer, added with 4 ml of lysate buffer (50 mM Tris-Hcl, pH 8.0, 150 mM NaCl, 0.5% NP40, 2× complete), fully homogenized on ice by pipetting through a 23G needle repeatedly, incubated for 30 minutes at 4° C. in a vertical shaker, and then centrifuged at 12000 g at 4° C. for 15 minutes to collect the supernatant.
# 16.1.2 The supernatant was passed through a sepharose 6B gel filtration column at a constant speed at 4° C., wherein the PBS buffer was used for elution, and different eluted components were separately collected by 4 ml per tube.
# 16.1.3 The content of mLeg1 in each tube was detected by Western blot. The tube with the highest mLeg1 content was taken as partially purified mLeg1, and the concentration of mLeg1 protein was estimated using the recombinantly-expressed mLeg1 protein in Escherichia coli as a reference, for subsequent experiments.
# 16.1.4 The partially purified mLeg1 protein was diluted to different concentrations (3.14×10^−2 ng/0.314 ng/μl and 3.14 ng/μl), and the different concentrations of mLeg1 protein were added to HepG2 culture medium respectively to culture HepG2, followed by incubation at 37° C. for 20 minutes, then total protein was extracted (as to the method of extraction, reference can be made to step 13.2), and Akt phosphorylation level at the different concentrations was detected by Western blot (referring to step 14.3, anti-p-Akt antibody (S473, Cell signaling #4060P) was selected as the corresponding antibody, and the dilution ratio was 1:1000).
# 16.2.1 mLeg1 protein-enriched components from wild-type mice and from mLeg1^Δ/Δ mice were extracted respectively. […]
# 16.2.3 The Akt phosphorylation level at different concentrations was detected by Western blot (reference can be made to step 13.2 for details, anti-p-Akt antibody (S473, Cell signaling #4060P) was selected as the corresponding antibody, and the dilution ratio in use was 1:1000).
# RTKs = assay: Phospho-RTK array, HepG2 cells: other RTKs; conditions: HepG2, Phospho-RTK array (49 RTKs)
# Method: 19.1 The screening of receptor tyrosine kinase was performed by a RTK assay kit (Proteome Profiler Human Phospho-RTK Array Kit, R&D Cat. no. ARY001B) according to the manufacturer's instruction. The kit can detect 49 of 58 RTKs in total. The operation steps are summarized as follows: mLeg1 and a control were used to treat the cells (cells were grown in a 10 cm petri dish) separately, and then 500 μl of lysis buffer17 was used to lyse the cells; the RTK screening membrane was blocked for 1 hour using Assay buffer1 and then coated with a cell lysate for binding overnight, the resultant product was washed three times with 1× Wash Buffer, 10 minutes each time, then added with Anti-Phospho-Tyrosine-HRP Detection Antibody diluted with 1× Array Buffer2 at the ratio of 1:5000 for incubation at room temperature for 2 hours; followed by washing 3 times with 1× Wash Buffer, 10 minutes each time, then applied with Chemi Reagent Mix and developed, and finally imaged in a fluorescent chemiluminescent imager (Clinx Science Instruments Cat. No. 3400) with the signals recorded.
molecule,measurement,setting,value
B1,time within which Akt phosphorylation is induced,[1],≤ 20 min
same,induction of Akt phosphorylation,"[2]; HepG2, 37° C. 20 minutes, 3.14×10^−2, 0.314 and 3.14 ng/μl",could induce Akt phosphorylation
same,level of partially purified mLeg1 able to induce Akt phosphorylation of the HepG2 cells,"[2]; HepG2, 20 minutes",nanogram levels
same,ability to induce Akt phosphorylation,"[2]; HepG2, 20 minutes, compared with corresponding components of mLeg1Δ/Δ salivary glands",significantly higher
same,activity of most of the RTKs,RTKs,not influenced

# Reference: patent US20180312557A1, “Leg1 Protein, Leg1 Gene, and Uses and Drugs thereof” (ZHEJIANG UNIVERSITY, priority 2016, published 2018)
